Laboratory results as given in patent publication US7704695B2, “Screening of compounds for BGT1 transporter activity” (XenoPort, Inc., priority 2005, dated 2010).

Substrate: NCCCC(=O)O
Assay: hBGT1 direct uptake assay (LC-MS-MS)
Format: cell-based, human
Settings: other: HEK-TREx-hBGT1 cells induced to express hBGT1
Procedure: A modified direct uptake assay was developed to determine the ability of test compounds to be transported into HEK-TREx cells induced to over-express hBGT1. Four concentrations (bracketing the affinity as measured by competition assays) per compound were routinely tested. Non-specific uptake was determined by measuring the uptake into cells not induced to express the transporter (“no tet”).
Typically, four concentrations bracketing the IC50 were tested. The highest test concentration for each compound was made in an Eppendorf tube and diluted into HBSS. The samples were robustly vortexed and centrifuged for 10 minutes at 13,200 rpm to spin down any precipitate. […] Three additional 2-fold dilutions were made in the subsequent rows (B-D or F-G) in HBSS.
An internal standard of 50 μM propranolol in 50:50 ethanol:water was also prepared. To prepare standard curves, several concentrations of the test compounds were diluted into HEK cell extract (prepared from tet-treated, mock-incubated, and extracted cells as described below) with a final internal standard concentration of 5 μM. Standards of 10, 5, 1, 0.5, 0.1, 0.05, 0.01, and 0.005 μM were routinely run for each test compound. […]

B1: hBGT1 (Homo sapiens) (protein)
chain: MDGKVAVQECGPPAVSWVPEEGEKLDQEDEDQVKDRGQWTNKMEFVLSVAGEIIGLGNVWRFPYLCYKNGGGAFFIPYFIFFFVCGIPVFFLEVALGQYTSQGSVTAWRKICPLFQGIGLASVVIESYLNVYYIIILAWALFYLFSSFTSELPWTTCNNFWNTEHCTDFLNHSGAGTVTPFENFTSPVMEFWERRVLGITSGIHDLGSLRWELALCLLLAWVICYFCIWKGVKSTGKVVYFTATFPYLMLVILLIRGVTLPGAYQGIIYYLKPDLFRLKDPQVWMDAGTQIFFSFAICQGCLTALGSYNKYHNNCYKDCIALCFLNSATSFVAGFVVFSILGFMSQEQGVPISEVAESGPGLAFIAFPKAVTMMPLSQLWSCLFFIMLIFLGLDSQFVCVECLVTASIDMFPRQLRKSGRRELLILTIAVMCYLIGLFLVTEGGMYIFQLFDYYASSGICLLFLSLFEVVCISWVYGADRFYDNIEDMIGYRPWPLVKISWLFLTPGLCLATFLFSLSKYTPLKYNNVYVYPPWGYSIGWFLALSSMVCVPLFVVITLLKTRGPFRKRLRQLITPDSSLPQPKQHPCLDGSAGRNFGPSPTREGLIAGEKETHL
notes: expressed in transfected cells; host or cells: HEK-TREx cells (HEK-TREx-BGT1 inducible line), induced with tetracycline/doxycycline and butyrate
B1 was tested, and the Km was 27 µM.
